This data set deals with the molecule itself. In words: cryo-EM structure; TRPV5 in lipid nanodiscs (MSP2N2, soy polar lipids), incubated with 400 uM oleoyl-CoA or 400 uM diC8-PI(4,5)P2 for 45 min; 20 mM HEPES pH 8.0, 150 mM NaCl, 2 mM TCEP; C4 symmetry imposed.

B1: full-length rabbit TRPV5 (natural protein, UniProt Q9XSM3 1-730, looked up)
chain: MGACPPKAKGPWAQLQKLLISWPVGEQDWEQYRDRVNMLQQERIRDSPLLQAAKENDLRLLKILLLNQSCDFQQRGAVGETALHVAALYDNLEAATLLMEAAPELAKEPALCEPFVGQTALHIAVMNQNLNLVRALLARGASVSARATGAAFRRSPHNLIYYGEHPLSFAACVGSEEIVRLLIEHGADIRAQDSLGNTVLHILILQPNKTFACQMYNLLLSYDEHSDHLQSLELVPNHQGLTPFKLAGVEGNTVMFQHLMQKRKHVQWTCGPLTSTLYDLTEIDSWGEELSFLELVVSSKKREARQILEQTPVKELVSFKWKKYGRPYFCVLASLYILYMICFTTCCIYRPLKLRDDNRTDPRDITILQQKLLQEAYVTHQDNIRLVGELVTVTGAVIILLLEIPDIFRVGASRYFGQTILGGPFHVIIITYASLVLLTMVMRLTNMNGEVVPLSFALVLGWCSVMYFARGFQMLGPFTIMIQKMIFGDLMRFCWLMAVVILGFASAFHITFQTEDPNNLGEFSDYPTALFSTFELFLTIIDGPANYSVDLPFMYCITYAAFAIIATLLMLNLFIAMMGDTHWRVAQERDELWRAQVVATTVMLERKMPRFLWPRSGICGYEYGLGDRWFLRVENHHDQNPLRVLRYVEAFKCSDKEDGQEQLSEKRPSTVESGMLSRASVAFQTPSLSRTTSQSSNSHRGWEILRRNTLGHLNLGLDLGEGDGEEVYHF
notes: TRPV5, rabbit, full length, in a YepM vector; also called Transient receptor potential vanilloid 5; TRPV5_(CoA Open)
Take B1: the binding result is “binds”.
